Reference: patent US20230183352A1 (published 2023)
Where two headings read alike, the source gives them in different places.

How the values were obtained:
[1] = target: T1, Claudin 18.2 (CLDN18.2), expressed on CHOS-CLDN 18.2 / HEK293-CLDN 18.2 / HCC827-CLDN 18.2 cells (human, UniProt P56856-2 1-261); assay: FACS, CHOS-CLDN18.2 cells
T1 construct: whole, on cells; The species is not repeated for the CHOS-CLDN 18.2 cells; also called claudin-18A2
Experimental: (§1) The initial concentration of the antibody was 20 μg/ml, it was diluted at 1:4, and incubated at 4° C. for 60 min.

[2] = target: T1, Claudin 18.2 (CLDN18.2), expressed on …; assay: FACS, CHOS-CLDN18.2 cells, 5 µg/ml
Experimental: as §1

[3] = target: T1, Claudin 18.2 (CLDN18.2), expressed on …; assay: FACS, CHOS-CLDN18.2 cells, 20 µg/ml
Experimental: as §1

[4] = target: T1, Claudin 18.2 (CLDN18.2), expressed on …; assay: FACS, CHOS-CLDN18.2 cells, 10 µg/ml
Experimental: (§2) The initial concentration of the antibody was 20 μg/mkit was diluted at 1:4, and incubated at 4° C. for 60 min.

[5] = target: T1, Claudin 18.2 (CLDN18.2), expressed on …; assay: FACS, CHOS-CLDN18.2 cells, 0.005 µg/ml
Experimental: as §1

[6] = target: T1, Claudin 18.2 (CLDN18.2), expressed on …; assay: FACS, CHOS-CLDN18.2 cells, 0.020 µg/ml
Experimental: as §1

[7] = target: T1, Claudin 18.2 (CLDN18.2), expressed on …; assay: FACS, CHOS-CLDN18.2 cells, 0.078 µg/ml
Experimental: as §1

[8] = target: T1, Claudin 18.2 (CLDN18.2), expressed on …; assay: FACS, CHOS-CLDN18.2 cells, 0.313 µg/ml
Experimental: as §1

[9] = target: T1, Claudin 18.2 (CLDN18.2), expressed on …; assay: FACS, CHOS-CLDN18.2 cells, 1.250 µg/ml
Experimental: as §1

[10] = target: T1, Claudin 18.2 (CLDN18.2), expressed on …; assay: FACS, CHOS-CLDN18.2 cells, 0 µg/ml (background)
Experimental: as §1

[11] = target: T1, Claudin 18.2 (CLDN18.2), expressed on …; assay: FACS, MFI on CHOS-CLDN18.2 over MFI on CHOS-CLDN18.1, 10 µg/ml
Experimental: as §2

[12] = target: T1, Claudin 18.2 (CLDN18.2), expressed on …; assay: FACS, CHOS-CLDN18.2 cells; remark: listed apart in the source
Experimental: as §1

[13] = target: T1, Claudin 18.2 (CLDN18.2), expressed on …; assay: FACS, CHOS-CLDN18.2 cells, 5 µg/ml; remark: listed apart in the source
Experimental: as §1

[14] = target: T1, Claudin 18.2 (CLDN18.2), expressed on …; assay: FACS, CHOS-CLDN18.2 cells, 20 µg/ml; remark: listed apart in the source
Experimental: as §1

[15] = target: T1, Claudin 18.2 (CLDN18.2), expressed on …; assay: FACS, CHOS-CLDN18.2 cells, 0.005 µg/ml; remark: listed apart in the source
Experimental: as §1

[16] = target: T1, Claudin 18.2 (CLDN18.2), expressed on …; assay: FACS, CHOS-CLDN18.2 cells, 0.020 µg/ml; remark: listed apart in the source
Experimental: as §1

[17] = target: T1, Claudin 18.2 (CLDN18.2), expressed on …; assay: FACS, CHOS-CLDN18.2 cells, 0.078 µg/ml; remark: listed apart in the source
Experimental: as §1

[18] = target: T1, Claudin 18.2 (CLDN18.2), expressed on …; assay: FACS, CHOS-CLDN18.2 cells, 0.313 µg/ml; remark: listed apart in the source
Experimental: as §1

[19] = target: T1, Claudin 18.2 (CLDN18.2), expressed on …; assay: FACS, CHOS-CLDN18.2 cells, 1.250 µg/ml; remark: listed apart in the source
Experimental: as §1

[20] = target: T1, Claudin 18.2 (CLDN18.2), expressed on …; assay: FACS, CHOS-CLDN18.2 cells, 0 µg/ml (background); remark: listed apart in the source
Experimental: as §1

Binder | EC50 [1] [µg/mL] | max [1] | FACS reading [2] | FACS reading [3] | MFI [4] | FACS reading [5] | FACS reading [6] | FACS reading [7] | FACS reading [8] | FACS reading [9] | FACS reading [10] | CLDN18.2/CLDN18.1 (MFI ratio) [11] | EC50 [12] [µg/mL] | max [12] | FACS reading [13] | FACS reading [14] | FACS reading [15] | FACS reading [16] | FACS reading [17] | FACS reading [18] | further results
QP199200 (antibody, human IgG1, V domains shown, Chimeric; also called 43C11; mouse-derived chimeric antibody QP199200) VH: DVQLVESGGGLVQPGGSRKLSCAASGFTFSSFGMHWVRQAPEKGLEWVAYISSGSNSIYYVDTVKGRFTISRDNPKNTLFLQMTSLKSEDTAMYYCARNAYYGNSFDYWGQGTTLTVSS VL: DIVMTQSPSSLTVTAGEKVTMSCKSSQSLLNSGNQKNYLTWYQQKPGQPPKLLIYWASTRESGVPDRFTGSGSGTVFTLTISSVQAEDLAVYFCQNNYYYPLTFGAGTKLELK | 1.19 | 165000 | 165000 | 218000 | 514000 | 2760 | 7520 | 19900 | 50600 | 132000 | 732 | 560 | – | – | – | – | – | – | – | – | –
QP14441441 (antibody, human IgG1, kappa, V domains shown, Humanized from QP192193) VH: QVQLVQSGAEVKKPGASVKVSCKASGYAFSSYWMNWVRQAPGQGLEWIGQIYPGNGDTTYNGKFKGRVTMTADKSTSTVYMELSSLRSEDTAVYYCARFVKGNAMDYWGQGTLVTVSS VL: DIVMTQSPDSLAVSLGERATISCKSSQSLLNSGNQKNYLTWYQQKPGQPPKLLIYWASTRESGVPDRFSGSGSGIDFTLTISSVQAEDVAVYYCQNAYSYPFTFGQGTKLEIKR | – | – | – | – | 693000 | – | – | – | – | – | – | 608 | 0.484 | 175000 | 151000 | 175000 | 4230 | 10100 | 27300 | 74700 | FACS reading [19]: 125000; FACS reading [20]: 732
QP14501448 (antibody, human IgG1, kappa, V domains shown, Humanized from QP199200) VH: EVQLVESGGGLVQPGGSLRLSCAASGFTFSSFGMHWVRQAPGKGLEWVAYISSGSNSIYYVDTVKGRFTISRDNAKNSLYLQMNSLRDEDTAVYYCARNAYYGNSFDYWGQGTLVTVSS VL: DIVMTQSPDSLAVSLGERATISCKSSQSLLNSGNQKNYLTWYQQKPGQPPKLLIYWASTRESGVPDRFTGSGSGTVFTLTISSLQAEDVAVYFCQNNYYYPLTFGGGTKVEIKR | 0.498 | 149000 | 149000 | 117000 | 540000 | 2480 | 7460 | 14200 | 45600 | 108000 | 732 | 501 | – | – | – | – | – | – | – | – | –
QP14491448 (antibody, human IgG1, kappa, V domains shown, Humanized from QP199200) VH: EVQLVESGGGLVQPGGSLRLSCAASGFTFSSFGMHWVRQAPGKGLEWVSYISSGSNSIYYVDTVKGRFTISRDNAKNSLYLQMNSLRDEDTAVYYCARNAYYGNSFDYWGQGTLVTVSS VL: DIVMTQSPDSLAVSLGERATISCKSSQSLLNSGNQKNYLTWYQQKPGQPPKLLIYWASTRESGVPDRFTGSGSGTVFTLTISSLQAEDVAVYFCQNNYYYPLTFGGGTKVEIKR | 0.666 | 154000 | 154000 | 183000 | 484000 | 2410 | 6320 | 19200 | 45100 | 132000 | 732 | 487 | – | – | – | – | – | – | – | – | –
QP14501446 (antibody, human IgG1, kappa, V domains shown, Humanized from QP199200) VH: EVQLVESGGGLVQPGGSLRLSCAASGFTFSSFGMHWVRQAPGKGLEWVAYISSGSNSIYYVDTVKGRFTISRDNAKNSLYLQMNSLRDEDTAVYYCARNAYYGNSFDYWGQGTLVTVSS VL: DIVMTQSPDSLAVSLGERATINCKSSQSLLNSGNQKNYLTWYQQKPGQPPKLLIYWASTRESGVPDRFSGSGSGTDFTLTISSLQAEDVAVYYCQNNYYYPLTFGGGTKVEIKR | 0.962 | 143000 | 143000 | 160000 | 505000 | 2330 | 6350 | 13900 | 39500 | 96200 | 732 | 510 | – | – | – | – | – | – | – | – | –
QP14451442 (antibody, human IgG1, kappa, V domains shown, Humanized from QP192193) VH: QVQLVQSGAEVKKPGASVKVSCKASGYAFSSYWMNWVRQAPGQGLEWIGQIYPGNGDTTYNGKFKGRVTMTADKSTSTVYMELSSLRSEDTAVYFCARFVKGNAMDYWGQGTLVTVSS VL: DIVMTQSPDSLAVSLGERATISCKSSQSLLNSGNQKNYLTWYQQKPGQPPKMLIYWASTRESGVPDRFSGSGSGIDFTLTISSVQAEDVAVYYCQNAYSYPFTFGQGTKLEIKR | – | – | – | – | 653000 | – | – | – | – | – | – | 463 | 0.344 | 177000 | 138000 | 177000 | 4790 | 11100 | 29800 | 82300 | FACS reading [19]: 137000; FACS reading [20]: 732
QP192193 (antibody, human IgG1, V domains shown, Chimeric; also called 40F1; mouse-derived chimeric antibody QP192193) VH: QVQLQQSGAELVRPGSSVKISCKASGYAFSSYWMNWVKQRPGQGLEWIGQIYPGNGDTTYNGKFKGQATLTADKSSSTVYMQLSSLTSEDSAVYFCARFVKGNAMDYWGQGTSVTVSS VL: DIVMTQSPSSLTVTAGEKVTMSCKSSQSLLNSGNQKNYLTWYQQNPGQPPKMLIYWASTRESGVPDRFTGSGSGIDFSLTISSVQAEDLALYYCQNAYSYPFTFGSGTKLEIK | – | – | – | – | 644000 | – | – | – | – | – | – | 627 | 0.361 | 177000 | 177000 | 155000 | 3790 | 11400 | 27800 | 74600 | FACS reading [19]: 168000; FACS reading [20]: 732
